Drawing on paper PMC7457537, this text covers Kd and stoichiometry N for 1 substance.

Test [1] concerns the target HIV-1 integrase with methionine preceding the N-terminal phenylalanine (IN MF), full-length (HIV-1 (NL4-3)). Put plainly: AUC; sedimentation equilibrium, 4 °C, same data and buffer as the monomer-dimer fit; attempted fit of a dimer-tetramer equilibrium: tetramer to dimers.
The target is the same in test [2]. Nature of the test: AUC; sedimentation velocity, 25 °C, 40,000 rpm, 20 mM HEPES-NaOH pH 7.5, 1 M NaCl, 7 mM CHAPS, 10 µM ZnOAc2, 10 µM β-mercaptoethanol; c(s) model in SEDFIT; self-association.
Test [3] has the same target. Put plainly: AUC; sedimentation equilibrium, 4 °C, 20 mM HEPES-NaOH pH 7.5, 1 M NaCl, 7 mM CHAPS, 10 µM ZnOAc2, 10 µM β-mercaptoethanol; global fit at 16, 20, 24 krpm (SEDPHAT); dimer to monomers.
Test [4] has the same target. Nature of the test: SEC-MALS; Superdex 200 10/300, 25 °C, 20 mM HEPES-NaOH pH 7.5, 500 mM-1 M NaCl, 7 mM CHAPS, 10 µM ZnOAc2, 10 µM β-mercaptoethanol; eluted concentrations ~8-10 µM (IN 1F, IN MF); self-association. Background: In gel filtration, larger molecules generally elute earlier.

Consider “HIV-1 integrase with methionine preceding the N-terminal phenylalanine (IN MF), full-length (enzyme)”, for which the Kd (in general, the concentration at which binding is half-saturated) is > 1000 µM in test [1] and 127 µM in test [3]. The stoichiometry N in test [2] and in test [4] was 2 in each case.
